Three molecules from patent US20030216321A1 (REGENTS OF THE UNIVERSITY OF MICHIGAN, published 2003) can be followed below.

Ends that are not written are not given here.

The target in experiment [1] is T1, recombinant active wild-type PAI-1 (plasminogen activator inhibitor type 1) (human, UniProt P05121 24-402).
T1 construct: Serpin; Bacterially expressed human PAI-1 (Molecular Innovations), active conformation (>95%); also called wtPAI-1; active PAI-1
Put plainly: 6.4 µM active PAI-1 with 200 µM peptide; thermodenaturation, mass spectra, SDS-PAGE. The source says: The free peptide was then removed by chromatography on Heparin Sepharose.

In experiment [2] the target is T2, PAI-1:uPA complex (human, UniProt P00749 21-431).
T2 construct: also called uPA-PAI-1 complex; UPA-PAI-1
The experiment in a line: solid phase assay on nVn-coated plates, anti-PAI-1 detection (FIG. 27).

Experiment [3] has as its target T3, PAI-1:tPA complex (human, UniProt P00750 36-562).
T3 construct: also called tPA-PAI-1 complex
The description is as above.

In experiment [4] the target is T4, non-covalent PAI-1-anhydrotrypsin complex (human; bovine, UniProt P00760 24-246, anhydrotrypsin (chemically modified active site; the residue is not given)).
T4 construct: Formed in the well: 1 µM anhydrotrypsin present during the PAI-1 incubation step; also called PAI-1 in association with anhydrotrypsin
The experiment in a line: solid phase assay on nVn-coated plates with 1 µM anhydrotrypsin in all wells (FIG. 28). As for the experimental part:
Briefly, Vn at 1 µg/ml in phosphate buffered saline (PBS), was coated overnight onto Immulon 2 (Dynatech) rmicrotiter plates in a volume of 100 μl at 4° C., and all subsequent steps were performed at room temperature. The plates were washed with PBS followed by dH₂O, allowed to air dry for 15 min., and then blocked with 200 μl of 3% bovine serum albumin in PBS for 30 minutes.

Experiment [5] deals with T1, recombinant active wild-type PAI-1 …. The experiment in a line: competitive inhibition of active PAI-1 binding to immobilized nVn by solution-phase Vn, ELISA. As for the experimental part:
IC₅₀ values for the inhibition by solution-phase Vn were calculated using a four parameter logistic fit from the GraFit program (Erithacus Software). […] The latter was calculated based on the fit of binding data in the absence of competitor Vn (FIG. 37) by equation 1.

B1: synthetic RCL peptide Ac-Thr-Val-Ala-Ser-Ser-Ser-Thr-Ala (PAI-1 P14 to P7) (peptide)
peptide: Ac-TVASSSTA
notes: also called eight residue synthetic peptide
As to B1, the binding result in experiment [1] is reported as “binds”.

B2: native human vitronectin (ligand, UniProt P04004 20-478, looked up)
chain: DQESCKGRCTEGFNVDKKCQCDELCSYYQSCCTDYTAECKPQVTRGDVFTMPEDEYTVYDDGEEKNNATVHEQVGGPSLTSDLQAQSKGNPEQTPVLKPEEEAPAPEVGASKPEGIDSRPETLHPGRPQPPAEEELCSGKPFDAFTDLKNGSLFAFRGQYCYELDEKAVRPGYPKLIRDVWGIEGPIDAAFTRINCQGKTYLFKGSQYWRFEDGVLDPDYPRNISDGFDGIPDNVDAALALPAHSYSGRERVYFFKGKQYWEYQFQHQPSQEECEGSSLSAVFEHFAMMQRDSWEDIFELLFWGRTSAGTRQPQFISRDWHGVPGQVDAAMAGRIYISGMAPRPSLAKKQRFRHRNRKGYRSQRGHSRGRNQNSRRPSRATWLSLFSSEESNLGANNYDDYRMDWLVPATCEPIQSVFFFSGDKYYRVNLRTRRVDTVDPPYPRSIAQYWLGCPAPGHL
notes: Predominantly monomeric; also called nVn; native Vn
Broadly, the Kd is a measure of binding affinity in units of concentration. For B2, the Kd in experiment [2] and in experiment [3] was above 100 nM each time. Besides, the binding result in experiment [4] is “binds”.

B3: urea denatured human vitronectin (conformationally altered) (ligand, UniProt P04004 20-478, looked up)
chain: DQESCKGRCTEGFNVDKKCQCDELCSYYQSCCTDYTAECKPQVTRGDVFTMPEDEYTVYDDGEEKNNATVHEQVGGPSLTSDLQAQSKGNPEQTPVLKPEEEAPAPEVGASKPEGIDSRPETLHPGRPQPPAEEELCSGKPFDAFTDLKNGSLFAFRGQYCYELDEKAVRPGYPKLIRDVWGIEGPIDAAFTRINCQGKTYLFKGSQYWRFEDGVLDPDYPRNISDGFDGIPDNVDAALALPAHSYSGRERVYFFKGKQYWEYQFQHQPSQEECEGSSLSAVFEHFAMMQRDSWEDIFELLFWGRTSAGTRQPQFISRDWHGVPGQVDAAMAGRIYISGMAPRPSLAKKQRFRHRNRKGYRSQRGHSRGRNQNSRRPSRATWLSLFSSEESNLGANNYDDYRMDWLVPATCEPIQSVFFFSGDKYYRVNLRTRRVDTVDPPYPRSIAQYWLGCPAPGHL
notes: also called dVn; uVn
For B3, in experiment [5], the “fold difference of IC50 against solution-phase nVn” value was around 6 fold.
